The experiment addresses recombinant H2AK119Ub mono-nucleosomes (UniProt P04908). The experiment can be described thus: AlphaScreen or HTRF; Alphalisa: GST-SSX or GST-SSXdel7aa titrated against 10nM biotinylated nucleosomes; EC50 by nonlinear regression.

Sequence of GST-SSX1 (78aa) (Q16384 111-188): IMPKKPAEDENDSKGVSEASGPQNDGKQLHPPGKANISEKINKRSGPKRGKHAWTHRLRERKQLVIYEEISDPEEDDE

In the case of “GST-SSX1 (78aa) (from UniProt Q16384 111-188) (domain or fragment)”, the fold difference (Ub/unmod) by AlphaLisa was 4.8 fold.

Source of the values: article PMC7714695.
